Molecular target: FITC-labeled aP-C18 peptide (not stated (P. horikoshii and P. furiosus aP1 were both used))
Test: fluorescence polarisation

| Kd [µM] | Substance |
| --- | --- |
| 46.3 | aABCE1 A223S (enzyme) |
| 68.1 | aABCE1 I170S (enzyme) |
| 30.8 | aABCE1 R227A (enzyme) |
| 83 | aABCE1 V174S (enzyme) |
| 6.3 | aABCE1 V219S (enzyme) |
| 4.4 | aABCE1-ΔN74 (domain or fragment) |

Reference: publication PMC6125642
